± gives the standard deviation of the averaged measurements.
tested on: Saccharomyces cerevisiae; assay: protein stability index of tFT-peptide fusion (C-terminal peptide) (PSI (0-1 scale)); higher = more stable (slower turnover); conditions: genetic background: wild type; temperature: 30 C
Method: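 Multiplexed protein stability (MPS) profiling in S. cerevisiae. Random 12-aa peptides (tFT-X12 library) are fused to the C-terminus of a sfGFP-mCherry tandem fluorescent timer, after mCherry and a GGGS linker. Cells are FACS-sorted into 8 mCherry/sfGFP bins and deep-sequenced. The protein stability index (PSI) is the read-weighted bin average, scaled from 0 (unstable) to 1 (stable). Only peptides with >10 reads are reported; cells were grown at 30 °C in SC-His with glucose.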
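Also: PSI is a weighted mean of sequencing reads over stability bins, variants kept only with over 10 reads, mCherry proximal and sfGFP distal, peptide attached via GGGS linker.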

Going from SKGARQRQPPDG to ELRADRTYTGIV, the protein stability index rises from 0.5983 ± 0.0041 to 0.752 ± 0.054.

Going from SLSPPPPAPRAP to FSSSASNSSWPY, the protein stability index rises from 0.663 ± 0.02 to 0.721 ± 0.016.

APHPPPPDPPLP and SFGSVFGGRWCV are within error of each other in protein stability index: 0.697 ± 0.04 for the first, 0.672 ± 0.035 for the second.

ELEIKGRRQIKT and GSAVMLGVSVRV are within error of each other in protein stability index: 0.666 ± 0.055 for the first, 0.581 ± 0.043 for the second.

AGRLEGGRRWRV and RPTPSAPHRTRI are within error of each other in protein stability index: 0.69 ± 0.031 for the first, 0.735 ± 0.041 for the second.

ASFVPPYLPSSM and PQTSRAPFPPPP are within error of each other in protein stability index: 0.75 ± 0.17 for the first, 0.7125 ± 0.0058 for the second.

LSLFLPFRFFRS and EGQVGVGWGWVR are within error of each other in protein stability index: 0.699 ± 0.025 for the first, 0.786 ± 0.12 for the second.

Compared with GTKGGPSGLEPP, PLTNKTHRPPDK is lower in protein stability index: 0.7125 ± 0.0018 for the first, 0.702 ± 0.0091 for the second.

ASSHDNPEEVST and LVCRRYSGDSSS are within error of each other in protein stability index: 0.6298 ± 0.002 for the first, 0.637 ± 0.023 for the second.

Going from IPIPLLPASSPP to GPPFAPASPVPL, the protein stability index rises from 0.6877 ± 0.0063 to 0.761 ± 0.038.

NSWCRFLRRCLV and PRPPLPPASPPL are within error of each other in protein stability index: 0.609 ± 0.074 for the first, 0.595 ± 0.044 for the second.

First: LPAPAGPEPPRT
Second: NYSINQKNRKKN
The protein stability index of the first is lower: 0.6747 ± 0.00069 for the first, 0.737 ± 0.013 for the second.

First: KKRRTKKENNNI
Second: SPPPTDPPQPPL
The protein stability index of the first is lower: 0.687 ± 0.0089 for the first, 0.7035 ± 0.0018 for the second.

SLGGGGGLAWWL and PRVCSCFLPTRP are within error of each other in protein stability index: 0.795 ± 0.26 for the first, 0.711 ± 0.01 for the second.

IPPFRLLCRLRL and SSNVVLYHSCSQ are within error of each other in protein stability index: 0.642 ± 0.022 for the first, 0.65 ± 0.018 for the second.

LTLCRSPMSLRA and IVGKMRRQKTKI are within error of each other in protein stability index: 0.633 ± 0.12 for the first, 0.685 ± 0.057 for the second.

ALWARSGRVILI and YAVGSAGLGVGL are within error of each other in protein stability index: 0.674 ± 0.05 for the first, 0.697 ± 0.1 for the second.

AGAGGGSLGPAG and AERGRMLSEGKW are within error of each other in protein stability index: 0.651 ± 0.1 for the first, 0.701 ± 0.053 for the second.

Compared with KLGRIWNFTLSA, KKSRLRNNPADC is higher in protein stability index: 0.6284 ± 0.001 for the first, 0.7 ± 0.031 for the second.

GISPDGSSIMAA and SSLGLFISTASV are within error of each other in protein stability index: 0.689 ± 0.02 for the first, 0.664 ± 0.042 for the second.

Compared with IEETKDYTRKRQ, KRCHPVYVRGGG is lower in protein stability index: 0.6484 ± 0.0034 for the first, 0.568 ± 0.013 for the second.

Compared with PCYCSAPRRSWA, FLRKHVLRLRPP is lower in protein stability index: 0.749 ± 0.04 for the first, 0.594 ± 0.03 for the second.

QVYGEWASAGWG and SSSPPPPSLAPP are within error of each other in protein stability index: 0.718 ± 0.04 for the first, 0.693 ± 0.0025 for the second.

PPPPSLLPPSPS and GWGPGGSERCGL are within error of each other in protein stability index: 0.702 ± 0.068 for the first, 0.711 ± 0.025 for the second.

Compared with AARGILLASRRD, CIYPYSSLLMRI is lower in protein stability index: 0.739 ± 0.092 for the first, 0.532 ± 0.028 for the second.

Compared with GQSGFGYVGSMK, EITLFELWPPGS is higher in protein stability index: 0.669 ± 0.049 for the first, 0.78 ± 0.03 for the second.

Compared with RLSGDRCSHDAG, VRPQLGNHRILV is lower in protein stability index: 0.6768 ± 0.0037 for the first, 0.609 ± 0.0067 for the second.

Compared with PAPPHPPFPLLP, VGVDCGVLWCLF is lower in protein stability index: 0.705 ± 0.018 for the first, 0.637 ± 0.015 for the second.

Going from FLLCFLRIPSCP to PPRPTPLPHAPP, the protein stability index rises from 0.5218 ± 0.0042 to 0.681 ± 0.02.

EVCAGDDIRYLV and MCDSFFGHSVRN are within error of each other in protein stability index: 0.645 ± 0.026 for the first, 0.699 ± 0.043 for the second.

CWGAGGRTVING and WPYEPGSSIVNG are within error of each other in protein stability index: 0.68 ± 0.034 for the first, 0.717 ± 0.01 for the second.

Going from PSPVPPSPPPSP to NVCSSFLAELVN, the protein stability index rises from 0.512 ± 0.083 to 0.6051 ± 0.0029.

HRKKTKNVTHVK and STGACCGTVRLL are within error of each other in protein stability index: 0.6485 ± 0.0062 for the first, 0.642 ± 0.0085 for the second.

PPPLSLTPPFLY and HPRLLLYLPTSS are within error of each other in protein stability index: 0.673 ± 0.074 for the first, 0.726 ± 0.1 for the second.

PGRSATSCPFLG and SNVHSYPEIRPG are within error of each other in protein stability index: 0.671 ± 0.019 for the first, 0.681 ± 0.01 for the second.

LHFYSLMEFQCD and PPPPRVLSPAWS are within error of each other in protein stability index: 0.695 ± 0.038 for the first, 0.649 ± 0.072 for the second.

FSPALPPSHSPP and EHCGRGMGSGAA are within error of each other in protein stability index: 0.676 ± 0.057 for the first, 0.673 ± 0.012 for the second.

First: NVEFVVERIREK
Second: STNLITPPITNI
The protein stability index of the first is lower: 0.6 ± 0.027 for the first, 0.677 ± 0.011 for the second.

FVRLFSGTLKSV and QTYEGSKGHLRD are within error of each other in protein stability index: 0.687 ± 0.033 for the first, 0.6625 ± 0.0044 for the second.

KRRKKTQESSKA and MGSQATPQRENS are within error of each other in protein stability index: 0.726 ± 0.049 for the first, 0.659 ± 0.12 for the second.

Compared with SGEVMGAMVLHE, PIPHHLRVASPA is lower in protein stability index: 0.773 ± 0.12 for the first, 0.6162 ± 0.00068 for the second.

LLQFRATFPTTV and SRSRPSRTLPLD are within error of each other in protein stability index: 0.721 ± 0.036 for the first, 0.695 ± 0.022 for the second.

PPAFPPPPSPPP and SEAKRMSGSSAN are within error of each other in protein stability index: 0.636 ± 0.091 for the first, 0.635 ± 0.041 for the second.

First: GAGGVRCPWVFG
Second: LTWCGVSEAVIA
The protein stability index of the first is higher: 0.674 ± 0.0075 for the first, 0.50795 ± 0.00033 for the second.

PTHCTPRRRTRR and PLPVLLLPGHLP are within error of each other in protein stability index: 0.676 ± 0.014 for the first, 0.733 ± 0.054 for the second.

First: GGGVLLWEGGGW
Second: LCSRICGVVARA
The protein stability index of the first is higher: 0.711 ± 0.02 for the first, 0.613 ± 0.042 for the second.

IFSPHRPAVALV and ENCDSAEPGTRV are within error of each other in protein stability index: 0.626 ± 0.073 for the first, 0.676 ± 0.033 for the second.

GVWVGAVRGRYG and PPSLRFLLPPSA are within error of each other in protein stability index: 0.6625 ± 0.0061 for the first, 0.685 ± 0.058 for the second.

VGREVSYGRGGD and KNGANREEYITK are within error of each other in protein stability index: 0.655 ± 0.031 for the first, 0.686 ± 0.028 for the second.

Source: the supplement of paper PMC10724198
